We go through two substances from patent publication US20090098608A1.

Assay [1] addresses FLAG-mSIGN-R1.ECD (mouse) (UniProt Q9CS74). The experiment in a line: Western blot, 293T lysate in two-fold dilutions.
For assay [2], the target named is both N-terminal and C-terminal FLAG tagged proteins. The assay is described as follows: Western blot, serial dilutions.
For assay [3], the target named is FLAG-mLangerin.ECD (mouse) (UniProt Q9CS74). The assay is described as follows: Western blot, purified protein in two-fold dilutions, 1 µg/ml antibody.

Take rat anti-FLAG mAb L5 (antibody): in assay [1], the fold fewer cells detectable than mAb M2 worked out at 8 fold. This substance also returned a times better detection than mAb M2 in assay [2] of 2 to 8 times. In assay [3], this substance had a fold lower detectable amount than mAb M2 of 4 fold and a lowest amount of purified protein detected by Western blot of 25 ng.
Consider “mouse anti-FLAG mAb M2 (ANTI-FLAG M2, Sigma-Aldrich) (antibody)”, for which the lowest amount of purified protein detected by Western blot in assay [3] came out at 100 ng.
